In patent US20210332123A1 (SUZHOU KANOVA BIOPHARMACEUTICAL, published 2021):
Numbering of substitutions follows the chain as printed.

T1: human IL-25 (human, UniProt Q9H293 33-177)
T1 construct: ELISA used bought R&D systems #1258-IL-025/CF; Treated as one molecule; also called IL-17E; human IL-17E
T1 sequence (looked up): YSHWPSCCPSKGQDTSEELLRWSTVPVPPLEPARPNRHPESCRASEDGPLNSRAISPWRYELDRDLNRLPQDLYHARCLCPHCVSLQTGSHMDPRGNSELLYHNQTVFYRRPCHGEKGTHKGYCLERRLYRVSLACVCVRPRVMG

T2: human IL-17D (human, UniProt Q8TAD2 18-202, limits assumed)
T2 sequence (looked up): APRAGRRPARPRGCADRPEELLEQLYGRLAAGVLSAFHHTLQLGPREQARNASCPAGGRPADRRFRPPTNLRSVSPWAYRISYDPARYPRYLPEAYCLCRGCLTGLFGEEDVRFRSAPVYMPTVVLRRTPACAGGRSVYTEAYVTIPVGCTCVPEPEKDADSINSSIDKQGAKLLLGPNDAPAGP

T3: human IL-17F (human, UniProt Q96PD4 31-163)
T3 sequence (looked up): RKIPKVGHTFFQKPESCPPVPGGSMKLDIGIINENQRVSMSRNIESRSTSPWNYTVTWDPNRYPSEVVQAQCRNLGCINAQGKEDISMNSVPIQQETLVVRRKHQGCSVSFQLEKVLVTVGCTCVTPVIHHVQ

T4: human IL-17A (human, UniProt Q16552 24-155, limits assumed)
T4 sequence (looked up): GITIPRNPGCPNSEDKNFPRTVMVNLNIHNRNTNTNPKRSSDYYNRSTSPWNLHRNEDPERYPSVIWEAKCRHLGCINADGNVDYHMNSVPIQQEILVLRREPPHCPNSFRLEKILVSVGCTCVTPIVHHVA

T5: human IL-17B (human, UniProt Q9UHF5 21-180)
T5 sequence (looked up): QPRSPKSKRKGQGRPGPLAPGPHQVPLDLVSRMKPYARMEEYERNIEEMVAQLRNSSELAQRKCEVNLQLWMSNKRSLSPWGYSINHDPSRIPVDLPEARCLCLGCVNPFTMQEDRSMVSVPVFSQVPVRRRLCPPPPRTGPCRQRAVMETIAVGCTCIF

B1: VH1-1 + VL2-1 (humanized anti-IL-25 antibody formed by VH1-1 and VL2-1) (antibody, V domains shown)
VH: QVTLKESGPTLVKPTQTLTLTCTFSGFSLSTSGMGLGWIRQPPGKALEWLAHIWWDDVKHYKPALKSRLTITKDTSKNQVVLTMTNVDPVDTATYYCARMGQLHYYGYDYAMDYWGQGTLVTVSS
VL: DIQLTQSPSFLSASVGDRVTITCSASSSVSYMYWYQQKPGKAPKPLIYRTSNLASGVPSRFSGSGSGTEYTLTISSMQPEDFATYYCQLYHSYPPTWTFGQGTKLEIK
B2: VH1-1 + VL1-2 (humanized anti-IL-25 antibody formed by VH1-1 and VL1-2) (antibody, V domains shown)
VH: B1 VH
VL: EIVLTQSPATLSASPGERVTISCSASSSVSYMYWYQQKPGQAPRPLIYRTSNLASGVPARFSGSGSGTDYTLTISSMEPEDFATYYCQLYHSYPPTWTFGQGTKLEIK
notes: Captured by anti-human Fc gamma antibody in SPR
B3: VH2-1 + VL2-1 (humanized anti-IL-25 antibody formed by VH2-1 and VL2-1) (antibody, V domains shown)
VH: B1 VH with K5R, T10A, V12L, T72S, M84I
VL: B1 VL
B4: VH2-1 + VL1-2 (humanized anti-IL-25 antibody formed by VH2-1 and VL1-2) (antibody, V domains shown)
VH: B1 VH with K5R, T10A, V12L, T72S, M84I
VL: B2 VL
B5: murine anti-IL-25 monoclonal antibody 18H3 (antibody, V domains shown)
VH: QVTLKESGPGILQPSQTLSLTCSFSGFSLSTSGMGLGWIRQPSGKGLEWLAHIWWDDVKHYKPALKSRLTISKDISSSQVFLTIASVDTADTATYYCARMGQLHYYGYDYAMDYWGQGTSVTVSS
VL: QIVLTQSPAIMSASPGEKVTISCSASSSVSYMYWYQQKPGSSPKPWIYRTSNLASGVPARFSGSGSGTSYSLTISSMEAEDAATYYCQLYHSYPPTWTFGGGTKLEIK
notes: also called parental antibody; parental murine mAb

Legend:
human IL-25 [1] = target: T1, human IL-25; experiment: ELISA, plate coated with 2 µg/ml human IL-17E (IL-25)
Experimental: (§1) MaxiSorp 96-well plates (NUNC #449824, www.thermofisher.com) were coated with 2 μg/ml human IL-17A (Cell Signaling #89285F, www.cellsignal.com), human IL-17F (Cell Signaling #8906LC, www.cellsignal.com), human IL-17B (Peprotech #200-28, www.peprotech.com), human IL-17C (R&D systems #1234-IL-025/CF, www.rndsystems.com), human IL-17D ((Peprotech #200-27, www.peprotech.com), human IL-17E (R&D systems #1258-IL-025/CF, www.rndsystems.com) in 1×PBS (50 μl/well) respectively. Plates were incubated at 4° C. overnight. Coating solution was removed and plates were washed once with 200 μl/well PBST (1×PBS with 0.05% tween-20). Then 200 μl/well blocking buffer (1×PBS with 0.05% tween-20, 3% BSA) was added and incubated at room temperature for 1 hour. Blocking buffer was removed and plates were washed three times with 200 μl/well PBST (1×PBS with 0.05% tween-20). The anti-IL-25 antibodies (produced in Example 2), were diluted to 10, 3.33, 1.11, 0.37, 0.123, 0.041, 0.0137, 0.0046, 0.0015, 0.00031, 0.000102, 0.000034 μg/ml by 1×PBS and added to the plates (50 μl/well). Plates were incubated at room temperature for 2 hours. Antibodies in the wells were removed and plates were washed three times with 200 μl/well PBST (1×PBS with 0.05% tween-20) each time. Goat anti-human IgG(H&L)-HRP secondary antibody (Jackson Immuno Research #109-035-088, www.jacksonimmuno.com) was diluted 1:5000 in 1×PBS and added to each well (50 μl/well). Plates were incubated at room temperature for 1 hour. Secondary antibody was removed and plates were washed seven times with 200 μl/well PBST (1×PBS with 0.05% tween-20) each time. 50 μl/well TMB (eBioscience #85-00-4201-56, www.ebioscience.com) was added and plates were incubated at room temperature for several minutes. Then 50 μl/well 2N H₂SO₄ was added to stop the reaction. Plates were read at 450 nm.

human IL-25 [2] = target: T1, human IL-25; experiment: ELISA, plate coated with human IL-25 (hIl25-HIS), OD450, Example 4; unit from the axis lg(nM) and paragraph 95
Experimental: MaxiSorp 96-well plates (NUNC #449824, www.thermofisher.com) were coated with 2 μg/ml human IL-25 (R&D systems #1258-IL-025/CF) in 1×PBS (50 μl/well). Plates were incubated at 4° C. overnight. Coating solution was removed and plates were washed once with 200 μl/well PBST (1×PBS with 0.05% tween-20). Then 200 μl/well blocking buffer (1×PBS with 0.05% tween-20, 3% BSA) were added and incubated at room temperature for 1 hour. Blocking buffer was removed and plates were washed three times with 200 μl/well PBST (1×PBS with 0.05% tween-20). Anti-IL-25 antibodies (produced in Example 2) were diluted to 10, 3.33, 1.11, 0.37, 0.123, 0.041, 0.0137, 0.0046, 0.0015, 0.00031, 0.000102, 0.000034 μg/ml by 1×PBS and added to plates (50 μl/well). Plates were incubated at room temperature for 2 hours. Antibodies in the wells were removed and plates were washed three times with 200 μl/well PBST (1×PBS with 0.05% tween-20). Goat anti-human IgG (H&L)-HRP secondary antibody (Jackson Immuno Research #109-035-088, www.jacksonimmuno.com) was diluted 1:5000 in 1×PBS and added to each well (50 μl/well). Plates were incubated at room temperature for 1 hour. Secondary antibody was removed and plates were washed seven times with 200 μl/well PBST (1×PBS with 0.05% tween-20) each time. 50 μl/well TMB (eBioscience #85-00-4201-56, www.ebioscience.com) was added and plates were incubated at room temperature for several minutes. Then 50 μl/well 2N H₂SO₄ was added to stop the reaction. Optical density was measured at 450 nm in relation to human IL-25 binding.

human IL-17D [3] = target: T2, human IL-17D; experiment: ELISA, plate coated with 2 µg/ml cytokine
Experimental: as §1

human IL-25 [4] = target: T1, human IL-25; experiment: cell-based or functional assay
human IL-17D [5] = target: T2, human IL-17D; experiment: ELISA (FIG. 4)
Experimental: as §1

human IL-17F = target: T3, human IL-17F; experiment: ELISA (FIG. 4)
Experimental: as §1

human IL-17A = target: T4, human IL-17A; experiment: ELISA (FIG. 4)
Experimental: as §1

human IL-17B = target: T5, human IL-17B; experiment: ELISA (FIG. 4)
Experimental: as §1

Row | Binder | EC50 (human IL-25 [1]) | EC50 (human IL-25 [2]) | binding result (human IL-17D [3]) | IC50, CXCL1/GROalpha production of HT-29 cells stimulated by human IL-25 [A] (human IL-25 [4]) | binding result (human IL-17D [5]) | binding result (human IL-17F) | binding result (human IL-17A) | binding result (human IL-17B)
1 | B1 | 0.15 nM | 0.154 nM | no binding (tested: 10 µg/ml) | 7.23 nM | – | – | – | –
2 | B2 | 0.25 nM | 0.252 nM | no binding (tested: 10 µg/ml) | 11.4 nM | – | – | – | –
3 | B3 | 0.187 nM | 0.187 nM | no binding (tested: 10 µg/ml) | – | – | – | – | –
4 | B4 | 0.196 nM | 0.196 nM | no binding (tested: 10 µg/ml) | – | – | – | – | –
5 | B5 | – | 0.187 nM | – | – | no binding | no binding | no binding | no binding
